From paper PMC5992339, “The Structure of an Infectious Human Polyomavirus and Its Interactions with Cellular Receptors” (Structure(London, England:1993), 2018)

Target: the molecule itself
Test: cryo-EM structure; purified native BKV virions (0.25 mg/ml) adsorbed on carbon-coated lacey grids in buffer A without Triton X-100; icosahedral reconstructions: unliganded 3.8 A, with 20 mM GT1b oligosaccharide 3.4 A, with heparin 10 mg/ml 3.6 A, with 5 mM DTT (reduced) 6.5 A

B1: BK polyomavirus major capsid protein VP1 (natural protein)
chain: MAPTKRKGECPGAAPKKPKEPVQVPKLLIKGGVEVLEVKTGVDAITEVECFLNPEMGDPDENLRGFSLKLSAENDFSSDSPERKMLPCYSTARIPLPNLNEDLTCGNLLMWEAVTVQTEVIGITSMLNLHAGSQKVHEHGGGKPIQGSNFHFFAVGGEPLEMQGVLMNYRSKYPDGTITPKNPTAQSQVMNTDHKAYLDKNNAYPVECWVPDPSRNENARYFGTFTGGENVPPVLHVTNTATTVLLDEQGVGPLCKADSLYVSAADICGLFTNSSGTQQWRGLARYFKIRLRKRSVKNPYPISFLLSDLINRRTQRVDGQPMYGMESQVEEVRVFDGTERLPGDPDMIRYIDKQGQLQTKML
notes: Major capsid protein VP1 of BK polyomavirus, Dunlop strain, as it stands in the native virion made from the genome of plasmid pGEM7-Dunlop; the model is built up to Lys359 in chain 6, and the first 13 residues of chain 2 are not resolved; Protein of the native virion, with no tags and no truncation; The capsid is built from 72 pentons of VP1 (T = 7d); also called BKV VP1; chains 1-6 (the six …)
binding result: binds
